Article doi:10.1101/2023.05.30.542831

Target: APB-R3, long-acting recombinant human IL-18BP linked to the human albumin-binding Fab fragment SL335 (human)
Assay: SPR

human IL-18 (from UniProt Q14116 37-193) (ligand)
Kd: 0.0609 nM
